The values that follow come from publication PMC6128611, “The molecular structure of Schistosoma mansoni PNP isoform 2 provides insights into the nucleoside selectivity of PNPs” (PLoS ONE, 2018).

What is called Kd is the equilibrium constant for the complex coming apart. The Km is the substrate concentration at which the rate is half of its maximum. In general, Vmax refers to the rate approached at saturating substrate. Broadly, the kcat is the number of substrate molecules converted per active site and unit of time at saturation. In general, kcat/Km refers to the second-order rate constant that governs catalysis at low substrate concentration.

Data set [1] concerns the target T1, SmPNP2 (purine nucleoside phosphorylase isoform 2) (Schistosoma mansoni, UniProt A0A0U3AGT1).
T1 construct: ORF of 287 amino acids, 6His-SUMO tag cleaved
T1 sequence (A0A0U3AGT1 1-287): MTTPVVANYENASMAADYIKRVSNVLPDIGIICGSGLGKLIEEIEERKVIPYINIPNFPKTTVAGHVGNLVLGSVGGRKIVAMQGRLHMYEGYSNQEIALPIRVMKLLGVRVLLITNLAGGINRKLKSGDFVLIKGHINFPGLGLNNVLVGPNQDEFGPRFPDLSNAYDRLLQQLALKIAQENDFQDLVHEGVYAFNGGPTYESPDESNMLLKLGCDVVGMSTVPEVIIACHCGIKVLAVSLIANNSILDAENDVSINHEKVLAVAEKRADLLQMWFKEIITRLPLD
The data set can be described thus: crystal structure at […] Å (soaking). The data set is classed as binding.

Data set [2] addresses T1, SmPNP2 (purine nucleoside phosphorylase isoform 2). The data set can be described thus: ITC; crystal structure at […] Å. The data set is classed as binding. A general note: Isothermal titration calorimetry measures the heat released or taken up as one component is titrated into another.
Data set [3] has the same target. The data set can be described thus: crystal structure at […] Å, ternary complex with cytosine. The data set is classed as binding.
Substrate in data set [4]: OC[C@H]1O[C@@H](n2cnc3c(O)ncnc32)[C@H](O)[C@@H]1O
The data set can be described thus: xanthine oxidase-coupled phosphorolysis kinetics (KM). The data set is classed as biochemical, Schistosoma mansoni. The following applies: phosphate (co-substrate).

Substrate in data set [5]: Nc1ncnc2c1ncn2[C@@H]1O[C@H](CO)[C@@H](O)[C@H]1O
The description is as above. The data set is classed as biochemical, Schistosoma mansoni. Conditions: phosphate (co-substrate).

Substrate in data set [6]: Nc1ccn([C@@H]2O[C@H](CO)[C@@H](O)[C@H]2O)c(=O)n1
The data set can be described thus: purified protein. The following applies: active site; direct H-bonds of base with Met221 and Glu203, ribose O5 with His259 and Tyr202.

Regarding `Nc1ncnc2c1ccn2[C@@H]1O[C@H](CO)[C@@H](O)[C@H]1O` [tubercidin], in data set [1], the “crystal structure at 1.95 Å (soaking)” value is “three complexes were obtained: SmPNP2–tubercidin (7-deaza-adenosine), SmPNP2–hypoxanthine and SmPNP2–adenine”.
Molecule `Nc1cc[nH]c(=O)n1` [CYT, cytosine] registered an equilibrium dissociation constant (Kd) in data set [2] of 27 µM. That is a double-digit micromolar value.
With `O=P(O)(O)O[C@H]1O[C@H](CO)[C@@H](O)[C@H]1O` [R1P, ribose-1-phosphate], in data set [3], the “crystal structure at 1.42 Å, ternary complex with cytosine” value is recorded as “As expected the R1P binds in SmPNP2 in a similar way to that observed for SmPNP1–R1P complex”.

B1: SmPNP2 (purine nucleoside phosphorylase isoform 2) (Schistosoma mansoni) (protein)
chain: MTTPVVANYENASMAADYIKRVSNVLPDIGIICGSGLGKLIEEIEERKVIPYINIPNFPKTTVAGHVGNLVLGSVGGRKIVAMQGRLHMYEGYSNQEIALPIRVMKLLGVRVLLITNLAGGINRKLKSGDFVLIKGHINFPGLGLNNVLVGPNQDEFGPRFPDLSNAYDRLLQQLALKIAQENDFQDLVHEGVYAFNGGPTYESPDESNMLLKLGCDVVGMSTVPEVIIACHCGIKVLAVSLIANNSILDAENDVSINHEKVLAVAEKRADLLQMWFKEIITRLPLD
notes: ORF of 287 amino acids, 6His-SUMO tag cleaved
For B1, in data set [4], the Michaelis constant (Km) came out at 136.4 µM, the maximal velocity (Vmax) amounted to 360 µM/min, the kcat turned out to be 7 ± 0.2 s⁻¹ and the kcat/Km is 50600 ± 2900 M⁻¹ s⁻¹. Moreover, in data set [5], the Michaelis constant (Km) turned out to be 22.3 µM, the Vmax turned out to be 60 µM/min, the turnover number (kcat) stood at 1.02 ± 0.02 s⁻¹ and the kcat/Km was determined as 46000 ± 5200 M⁻¹ s⁻¹. In data set [6], the Michaelis constant (Km) came to 76.3 µM, the Vmax turned out to be 60 µM/min, the kcat came out at 2 s⁻¹ and the kcat/Km stood at 26200 M⁻¹ s⁻¹.
